Several values for one entry are separate records, joined by “and”; a condition that tells them apart may be missing. Equal values may be shown once.
Columns and labels:
[1] = molecular target: Giardia intestinalis deoxyadenosine kinase lacking the C-terminus (dAK-ΔC, amino acids 1-232) (Giardia intestinalis (assemblage A isolate WB)); assay: mass photometry; Refeyn 2MP, protein in PBS; 50 nM by the methods, 65 nM by the results
[2] = molecular target: Giardia intestinalis deoxyadenosine kinase lacking the N-terminus (dAK-ΔN, amino acids 30-251) (Giardia intestinalis (assemblage A isolate WB)); assay: as above
[3] = molecular target: Giardia intestinalis deoxyadenosine kinase lacking the N- and C-termini (dAK-ΔNΔC, amino acids 30-232) (Giardia intestinalis (assemblage A isolate WB)); assay: as above
[4] = molecular target: Giardia intestinalis deoxyadenosine kinase (Giardia intestinalis (assemblage A isolate WB)); assay: crystal structure + cryo-EM structure
[5] = molecular target: Giardia intestinalis deoxyadenosine kinase (Giardia intestinalis (assemblage A isolate WB)); assay: mass photometry; Refeyn 2MP, protein in PBS; 50 nM by the methods, 65 nM by the results
[6] = molecular target: Giardia intestinalis deoxyadenosine kinase (Giardia intestinalis (assemblage A isolate WB)); assay: SEC; Superdex 200 10/300 GL, 150 mM KCl, 50 mM Tris-HCl pH 7.6, 0.4 ml/min; protein at 0.1 mg/ml (4 μM); mass from a standard curve
[7] = molecular target: T1, deoxyadenosine kinase (dAK) (Giardia duodenalis, UniProt A8B9V6); assay: X-ray crystal structure at […] Å (co-purified ligand); HPLC of bound nucleotides; enzyme inhibition; format: binding; design: gene GL50803_0017451; full-length dAK (untagged after TEV cleavage)
T1 sequence (A8B9V6 1-251): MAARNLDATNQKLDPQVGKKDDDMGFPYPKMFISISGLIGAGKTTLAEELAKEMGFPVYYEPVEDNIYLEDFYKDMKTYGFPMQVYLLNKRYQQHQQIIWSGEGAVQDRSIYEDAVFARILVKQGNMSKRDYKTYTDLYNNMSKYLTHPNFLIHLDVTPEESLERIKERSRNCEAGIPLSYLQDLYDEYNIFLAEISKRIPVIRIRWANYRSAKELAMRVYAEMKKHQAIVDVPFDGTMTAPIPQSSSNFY

[8] = molecular target: T1, deoxyadenosine kinase (dAK); assay: enzyme inhibition kinetics with purified dAK; co-purified dATP seen by HPLC; format: biochemical; design: gene GL50803_0017451; full-length dAK
[9] = substrate: Nc1ncnc2c1ncn2[C@@H]1O[C@H](CO)[C@@H](O)[C@@H]1O; assay: steady-state kinetics with purified enzyme, HPLC (KM); format: biochemical, Giardia duodenalis; details: ATP and Mg2+ (phosphate donor in assay)
[10] = substrate: Nc1nc(Cl)nc2c1ncn2[C@@H]1O[C@H](CO)[C@@H](O)[C@@H]1F; assay: as above; format: biochemical, Giardia duodenalis; details: ATP and Mg2+ (phosphate donor in assay)
[11] = substrate: Nc1nc(I)nc2c1ncn2[C@H]1C[C@H](O)[C@@H](CO)O1; assay: as above; format: biochemical, Giardia duodenalis; details: ATP and Mg2+ (phosphate donor in assay)
[12] = substrate: Nc1ncnc2c1ncn2[C@@H]1O[C@H](CO)[C@@H](O)[C@@H]1F; assay: as above; format: biochemical, Giardia duodenalis; details: ATP and Mg2+ (phosphate donor in assay)
[13] = substrate: Nc1nc(F)nc2c1ncn2[C@@H]1O[C@H](CO)[C@@H](O)[C@@H]1O; assay: as above; format: biochemical, Giardia duodenalis; details: ATP and Mg2+ (phosphate donor in assay)
purified protein [14] = substrate: Nc1nc(Cl)nc2c1ncn2[C@H]1C[C@H](O)[C@@H](CO)O1; assay: purified protein; details: ATP and Mg2+ (phosphate donor in assay) active site (2-Cl towards F72, modelled)
purified protein [15] = substrate: Nc1ncnc2c1ncn2[C@H]1C[C@H](O)[C@@H](CO)O1; assay: purified protein; details: ATP and Mg2+ (phosphate donor in assay) active site

“Giardia intestinalis deoxyadenosine kinase lacking the C-terminus (dAK-ΔC, amino acids 1-232) (domain or fragment)” was tested, and the stoichiometry N [1] was 2 and 4.

“Giardia intestinalis deoxyadenosine kinase lacking the N-terminus (dAK-ΔN, amino acids 30-251) (domain or fragment)” was tested, and the stoichiometry N [2] was 4 and 2.

Work on “Giardia intestinalis deoxyadenosine kinase lacking the N- and C-termini (dAK-ΔNΔC, amino acids 30-232) (domain or fragment)” yielded a stoichiometry N [3] of 2.

Molecule “Giardia intestinalis deoxyadenosine kinase (enzyme)” has a stoichiometry N [4] of 4, a stoichiometry N [5] of 4 and a stoichiometry N [6] of 4.

In the case of `Nc1ncnc2c1ncn2[C@H]1C[C@H](O)[C@@H](COP(=O)(O)O)O1` [dAMP, deoxyadenosine monophosphate], the “X-ray crystal structure at 2.1 Å (co-purified ligand); HPLC of bound nucleotides” value [7] is reported as “the density for active site II unambiguously allowed for the placement of a dAMP”.

`Nc1ncnc2c1ncn2[C@H]1C[C@H](O)[C@@H](COP(=O)(O)OP(=O)(O)OP(=O)(O)O)O1` [dATP, deoxyadenosine triphosphate] gave a Ki [8] of 840 ± 220 nM.

B1: deoxyadenosine kinase (dAK) (Giardia lamblia ATCC 50803) (protein)
chain: T1 sequence (A8B9V6 1-251)
notes: full-length dAK
Work on B1 yielded a Km [9] of 6.70 ± 0.07 µM, a Vmax [9] of 6.6 µmol/min/mg and a kcat [9] of 3.19 s⁻¹. It also gave a kcat/Km [9] of 476000 M⁻¹ s⁻¹, a Km [10] of 6.23 ± 1.33 µM and a Vmax [10] of 7.26 µmol/min/mg. For the same molecule, the kcat [10] was 3.51 s⁻¹, the kcat/Km [10] was 563000 M⁻¹ s⁻¹ and the Km [11] was 4.78 ± 0.17 µM. The Vmax [11] was 13.7 µmol/min/mg, the kcat [11] was 6.63 s⁻¹ and the kcat/Km [11] was 1.39e+06 M⁻¹ s⁻¹. For the same molecule, the Km [12] was 2.66 ± 0.11 µM, the Vmax [12] was 7.64 µmol/min/mg and the kcat [12] was 3.69 s⁻¹. The kcat/Km [12] was 1.39e+06 M⁻¹ s⁻¹, the Km [13] was 8.40 ± 0.60 µM and the Vmax [13] was 7.2 µmol/min/mg. The kcat [13] was 3.48 s⁻¹, the kcat/Km [13] was 414000 M⁻¹ s⁻¹ and the Km (purified protein [14]) was 0.51 ± 0.08 µM. It also gave a Vmax (purified protein [14]) of 5.78 µmol/min/mg, a kcat (purified protein [14]) of 2.79 s⁻¹ and a kcat/Km (purified protein [14]) of 5.48e+06 M⁻¹ s⁻¹. The Km (purified protein [15]) was 1.12 ± 0.37 µM, the Vmax (purified protein [15]) was 10.3 µmol/min/mg and the kcat (purified protein [15]) was 4.96 s⁻¹. For the same molecule, the kcat/Km (purified protein [15]) was 4.43e+06 M⁻¹ s⁻¹.

Source: article PMC11662666 (Nucleic Acids Research, 2024)
